According to patent US20220033501A1:

Experiments:
[1] = target: human TIM-3 extracellular domain protein with hFc tag (hTIM-3-hFc) (human) (UniProt Q8TDQ0); assay: ELISA, coated human TIM-3 ECD protein, 0 nM antibody
[2] = target: monkey TIM-3 extracellular domain protein with hFc tag (cTIM-3-hFc) (monkey); assay: ELISA, coated monkey TIM-3 ECD protein, 0.0667 nM antibody
[3] = target: human TIM-3 on CHOK1 stable cell line (CHOK1-hTIM-3) (human) (UniProt Q8TDQ0); assay: FACS, CHOK1-hTIM-3 cells, 0.013 nM antibody
[4] = target: monkey TIM-3 on CHOK1 stable cell line (CHOK1-cTIM-3) (monkey); assay: FACS, CHOK1-cTIM-3 cells, 1.6 nM antibody
[5] = target: murine TIM-3 extracellular domain protein with hFc tag (mTIM-3-hFc) (mouse) (UniProt Q8VIM0); assay: ELISA, coated mouse TIM-3 ECD protein, 0.0001 nM antibody
[6] = target: human TIM-3 extracellular domain protein with hFc tag (hTIM-3-hFc) (human) (UniProt Q8TDQ0); assay: FACS, blocking of hTIM-3-hFc binding to phosphatidylserine on apoptotic Jurkat cells, 0 nM antibody
[7] = target: human TIM-3 extracellular domain protein with hFc tag (hTIM-3-hFc) (human) (UniProt Q8TDQ0); assay: ELISA, coated human TIM-3 ECD protein, 0.0001 nM antibody
[8] = target: human TIM-3 extracellular domain protein with hFc tag (hTIM-3-hFc) (human) (UniProt Q8TDQ0); assay: ELISA, coated human TIM-3 ECD protein, 0.0007 nM antibody
[9] = target: human TIM-3 on CHOK1 stable cell line (CHOK1-hTIM-3) (human) (UniProt Q8TDQ0); assay: FACS, CHOK1-hTIM-3 cells, 0.064 nM antibody
[10] = target: monkey TIM-3 extracellular domain protein with hFc tag (cTIM-3-hFc) (monkey); assay: ELISA, coated monkey TIM-3 ECD protein, 0 nM antibody
[11] = target: murine TIM-3 extracellular domain protein with hFc tag (mTIM-3-hFc) (mouse) (UniProt Q8VIM0); assay: ELISA, coated mouse TIM-3 ECD protein, 6.6667 nM antibody
[12] = target: murine TIM-3 extracellular domain protein with hFc tag (mTIM-3-hFc) (mouse) (UniProt Q8VIM0); assay: ELISA, coated mouse TIM-3 ECD protein, 0.6667 nM antibody
[13] = target: monkey TIM-3 extracellular domain protein with hFc tag (cTIM-3-hFc) (monkey); assay: ELISA, coated monkey TIM-3 ECD protein, 0.0067 nM antibody
[14] = target: human TIM-3 on CHOK1 stable cell line (CHOK1-hTIM-3) (human) (UniProt Q8TDQ0); assay: FACS, CHOK1-hTIM-3 cells, 8 nM antibody
[15] = target: human TIM-3 on CHOK1 stable cell line (CHOK1-hTIM-3) (human) (UniProt Q8TDQ0); assay: FACS, CHOK1-hTIM-3 cells, 0.32 nM antibody
[16] = target: murine TIM-3 extracellular domain protein with hFc tag (mTIM-3-hFc) (mouse) (UniProt Q8VIM0); assay: ELISA, coated mouse TIM-3 ECD protein, 0.0067 nM antibody
[17] = target: human TIM-3 extracellular domain protein with hFc tag (hTIM-3-hFc) (human) (UniProt Q8TDQ0); assay: FACS, blocking of hTIM-3-hFc binding to phosphatidylserine on apoptotic Jurkat cells, 7.407 nM antibody
[18] = target: human TIM-3 extracellular domain protein with hFc tag (hTIM-3-hFc) (human) (UniProt Q8TDQ0); assay: FACS, blocking of hTIM-3-hFc binding to phosphatidylserine on apoptotic Jurkat cells, 0.274 nM antibody

Chain of monkey TIM-3 extracellular domain protein with hFc tag (cTIM-3-hFc) (monkey) (chain, as listed by the source): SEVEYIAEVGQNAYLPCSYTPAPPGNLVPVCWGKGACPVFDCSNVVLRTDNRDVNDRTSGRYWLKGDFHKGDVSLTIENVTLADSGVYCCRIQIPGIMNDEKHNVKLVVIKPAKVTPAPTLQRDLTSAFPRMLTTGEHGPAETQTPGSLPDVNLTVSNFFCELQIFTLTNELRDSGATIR
Chain of human TIM-3 extracellular domain protein with hFc tag (hTIM-3-hFc) (human) (Q8TDQ0 22-200): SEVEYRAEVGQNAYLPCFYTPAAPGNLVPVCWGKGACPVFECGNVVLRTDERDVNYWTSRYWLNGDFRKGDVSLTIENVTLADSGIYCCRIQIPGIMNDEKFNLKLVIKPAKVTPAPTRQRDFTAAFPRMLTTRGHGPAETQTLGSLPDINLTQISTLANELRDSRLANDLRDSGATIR
Chain of human TIM-3 on CHOK1 stable cell line (CHOK1-hTIM-3) (human) (Q8TDQ0 22-301 limits assumed): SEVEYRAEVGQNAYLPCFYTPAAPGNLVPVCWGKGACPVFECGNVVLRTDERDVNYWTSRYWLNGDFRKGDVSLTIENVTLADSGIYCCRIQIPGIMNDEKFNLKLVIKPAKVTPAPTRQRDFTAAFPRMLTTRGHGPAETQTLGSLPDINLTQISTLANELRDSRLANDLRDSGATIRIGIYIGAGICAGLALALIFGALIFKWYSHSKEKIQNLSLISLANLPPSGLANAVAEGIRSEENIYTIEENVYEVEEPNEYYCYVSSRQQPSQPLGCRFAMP
Chain of murine TIM-3 extracellular domain protein with hFc tag (mTIM-3-hFc) (mouse) (Q8VIM0 other isoform, or with tags, fused parts or gaps): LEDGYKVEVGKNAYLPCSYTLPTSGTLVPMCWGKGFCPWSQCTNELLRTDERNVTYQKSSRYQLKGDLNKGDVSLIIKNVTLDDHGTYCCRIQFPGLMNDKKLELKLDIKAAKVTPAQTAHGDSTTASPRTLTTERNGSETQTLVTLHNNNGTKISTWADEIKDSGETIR
Chain of monkey TIM-3 on CHOK1 stable cell line (CHOK1-cTIM-3) (monkey) (chain, as listed by the source limits assumed): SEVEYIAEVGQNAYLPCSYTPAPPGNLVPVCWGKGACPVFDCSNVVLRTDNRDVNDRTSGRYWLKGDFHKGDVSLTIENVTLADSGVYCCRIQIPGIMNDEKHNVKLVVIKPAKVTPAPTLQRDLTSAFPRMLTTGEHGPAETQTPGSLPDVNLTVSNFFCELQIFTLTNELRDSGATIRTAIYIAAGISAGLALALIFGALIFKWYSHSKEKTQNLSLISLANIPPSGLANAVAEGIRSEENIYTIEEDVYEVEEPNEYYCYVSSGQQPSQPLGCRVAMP

OD450 [1]: 0.07
OD450 [2]: 0.13
Mean fluorescence intensity [3]: 2.8
Mean fluorescence intensity [4]: 3.2
OD450 [5]: 0.22
Inhibition ratio (%) [6]: -2.5%
OD450 [7]: 0.07
OD450 [8]: 0.07
Mean fluorescence intensity [9]: 2.8
OD450 [10]: 0.13
OD450 [11]: 0.3
OD450 [12]: 0.22
OD450 [13]: 0.13
Mean fluorescence intensity [14]: 4.5
Mean fluorescence intensity [15]: 2.9
OD450 [16]: 0.21
Inhibition ratio (%) [17]: 0.5%
Inhibition ratio (%) [18]: -20%
Substance: human IgG control (antibody)
